Experimental data reported in patent US20220402995A1 (TOSOH, published 2022).

Legend:
[1] = target: T1, VLP2 (virus-like particles of AAV2) (AAV2, UniProt P03135 1-735; P03135 1-598; P03135 1-533); experiment: ELISA on VLP2; binding after pH 3.0 51.1°C 15 min / untreated;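 note: binding of the heat-treated AAV-binding protein to VLP2, expressed as a percentage of the binding of the same protein without heating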
T1 construct: Empty AAV2 capsid; background says about 60 protein molecules, VP1:VP2:VP3 = 1:1:10; Immobilised on the ELISA plate
Procedure: (§1) The residual activity was calculated by dividing the binding activity of AAV-binding protein to VLP2 when the heat treatment was performed by the binding activity of AAV-binding protein to VLP2 when the heat treatment was not performed.

[2] = target: T1, VLP2 (virus-like particles of AAV2); experiment: ELISA on VLP2; binding after pH 3.0 61.0°C 15 min / untreated
Procedure: (3) The culture solution of (2) was centrifuged, and the obtained culture supernatant was diluted 32-fold with ultrapure water. The diluted culture solution in an amount of 60 μL and 60 μL of 0.1 M glycine hydrochloric acid buffer (pH 3.0) were mixed, and heat treatment and acid treatment were performed at 61.0° C. for 15 minutes.
as §1

T1 sequence (P03135 whole entry, chain 1 of 3): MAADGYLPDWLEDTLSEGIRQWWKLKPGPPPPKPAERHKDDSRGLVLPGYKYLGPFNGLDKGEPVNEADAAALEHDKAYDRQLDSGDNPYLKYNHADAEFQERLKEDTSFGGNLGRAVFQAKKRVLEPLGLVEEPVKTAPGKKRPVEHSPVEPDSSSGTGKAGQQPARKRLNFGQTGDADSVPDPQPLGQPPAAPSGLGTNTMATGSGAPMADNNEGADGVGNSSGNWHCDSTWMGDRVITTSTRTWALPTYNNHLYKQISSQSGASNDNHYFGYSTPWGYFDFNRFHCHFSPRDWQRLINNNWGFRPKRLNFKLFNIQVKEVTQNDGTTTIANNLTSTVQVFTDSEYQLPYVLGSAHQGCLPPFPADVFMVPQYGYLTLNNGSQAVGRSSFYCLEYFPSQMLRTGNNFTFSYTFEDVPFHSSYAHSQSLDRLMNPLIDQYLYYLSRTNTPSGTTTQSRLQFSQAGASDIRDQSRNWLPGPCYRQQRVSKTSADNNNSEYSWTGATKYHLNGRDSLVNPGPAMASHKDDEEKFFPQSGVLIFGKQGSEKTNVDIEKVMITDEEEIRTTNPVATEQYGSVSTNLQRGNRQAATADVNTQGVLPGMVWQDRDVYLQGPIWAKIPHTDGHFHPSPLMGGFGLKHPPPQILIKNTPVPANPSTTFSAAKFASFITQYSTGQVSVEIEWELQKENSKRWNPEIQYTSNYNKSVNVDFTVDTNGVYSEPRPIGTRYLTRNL
T1 sequence (P03135 139-735, tags left off, chain 2 of 3): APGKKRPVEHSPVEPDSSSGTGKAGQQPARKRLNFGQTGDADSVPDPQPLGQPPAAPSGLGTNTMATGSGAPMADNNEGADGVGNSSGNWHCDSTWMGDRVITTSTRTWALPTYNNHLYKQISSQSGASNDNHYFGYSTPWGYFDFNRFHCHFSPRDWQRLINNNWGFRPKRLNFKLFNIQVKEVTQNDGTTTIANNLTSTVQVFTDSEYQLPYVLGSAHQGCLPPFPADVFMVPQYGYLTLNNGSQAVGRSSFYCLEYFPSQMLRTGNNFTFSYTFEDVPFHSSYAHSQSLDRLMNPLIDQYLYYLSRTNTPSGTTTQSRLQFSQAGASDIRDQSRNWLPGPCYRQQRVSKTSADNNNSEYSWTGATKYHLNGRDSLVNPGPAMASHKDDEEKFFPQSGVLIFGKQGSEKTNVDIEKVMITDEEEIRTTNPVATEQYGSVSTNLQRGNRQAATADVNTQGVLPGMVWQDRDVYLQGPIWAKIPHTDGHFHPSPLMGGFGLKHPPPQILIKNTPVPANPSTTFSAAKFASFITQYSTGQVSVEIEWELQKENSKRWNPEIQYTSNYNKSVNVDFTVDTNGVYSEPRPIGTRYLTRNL
T1 sequence (P03135 203-735, chain 3 of 3): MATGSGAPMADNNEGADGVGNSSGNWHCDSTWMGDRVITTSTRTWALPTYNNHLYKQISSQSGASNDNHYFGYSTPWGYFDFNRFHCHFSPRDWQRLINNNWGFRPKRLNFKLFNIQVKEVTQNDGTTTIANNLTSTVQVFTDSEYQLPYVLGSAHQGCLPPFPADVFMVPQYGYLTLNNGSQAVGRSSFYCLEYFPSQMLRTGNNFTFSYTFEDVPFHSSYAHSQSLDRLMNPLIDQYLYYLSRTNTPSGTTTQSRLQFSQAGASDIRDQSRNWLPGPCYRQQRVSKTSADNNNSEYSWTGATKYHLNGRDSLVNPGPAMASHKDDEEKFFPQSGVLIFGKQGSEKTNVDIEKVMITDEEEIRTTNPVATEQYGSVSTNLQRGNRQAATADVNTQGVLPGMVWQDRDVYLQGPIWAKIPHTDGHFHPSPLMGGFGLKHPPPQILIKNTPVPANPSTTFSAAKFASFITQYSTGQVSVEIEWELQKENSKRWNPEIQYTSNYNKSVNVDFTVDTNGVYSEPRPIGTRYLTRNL

Binder	Residual activity [%] [1] [%]	Residual activity [%] [2] [%]
AAV-binding protein No. 78 (AVR2 + Leu328Pro, Ile366Phe) (receptor) MGSAGESVQITLPKNEVQPNAYVLQEPPKGETCTYDWQLITHPRDYSGEMEGKHSQFLKLSKLTPGLYEFKVIVEGQNAHSEGYVNVTVKPEPRKNRPPIAIVSPQFQEISLPTTSTVIDGSQSTDDDKIVQYHWEELKGPLREEKISEDTAILKLSKLVPGNYTFSLTVVDSDGATNSTTANLTVNKAVDHHHHHH	55.9	–
AAV-binding protein No. 79 (AVR2 + Lys338Asn, Asn487Asp) (receptor) MGSAGESVQITLPKNEVQLNAYVLQEPPNGETCTYDWQLITHPRDYSGEMEGKHSQILKLSKLTPGLYEFKVIVEGQNAHSEGYVNVTVKPEPRKNRPPIAIVSPQFQEISLPTTSTVIDGSQSTDDDKIVQYHWEELKGPLREEKISEDTAILKLSKLVPGNYTFSLTVVDSDGATDSTTANLTVNKAVDHHHHHH	73.1	–
AAV-binding protein No. 80 (AVR2 + Gln365Arg, Gly392Cys) (receptor) MGSAGESVQITLPKNEVQLNAYVLQEPPKGETCTYDWQLITHPRDYSGEMEGKHSRILKLSKLTPGLYEFKVIVEGQNAHSECYVNVTVKPEPRKNRPPIAIVSPQFQEISLPTTSTVIDGSQSTDDDKIVQYHWEELKGPLREEKISEDTAILKLSKLVPGNYTFSLTVVDSDGATNSTTANLTVNKAVDHHHHHH	49.9	–
AAV-binding protein No. 81 (AVR2 + Phe379Ser, Ser476Gly) (receptor) MGSAGESVQITLPKNEVQLNAYVLQEPPKGETCTYDWQLITHPRDYSGEMEGKHSQILKLSKLTPGLYESKVIVEGQNAHSEGYVNVTVKPEPRKNRPPIAIVSPQFQEISLPTTSTVIDGSQSTDDDKIVQYHWEELKGPLREEKISEDTAILKLSKLVPGNYTFGLTVVDSDGATNSTTANLTVNKAVDHHHHHH	66.3	–
AAV-binding protein No. 82 (AVR2 + Ser476Arg, Thr490Ser) (receptor) MGSAGESVQITLPKNEVQLNAYVLQEPPKGETCTYDWQLITHPRDYSGEMEGKHSQILKLSKLTPGLYEFKVIVEGQNAHSEGYVNVTVKPEPRKNRPPIAIVSPQFQEISLPTTSTVIDGSQSTDDDKIVQYHWEELKGPLREEKISEDTAILKLSKLVPGNYTFRLTVVDSDGATNSTSANLTVNKAVDHHHHHH	70.6	–
AAV-binding protein No. 83 (AVR2 + Ile319Ser, Thr320Ile, Lys399Glu) (receptor) MGSAGESVQSILPKNEVQLNAYVLQEPPKGETCTYDWQLITHPRDYSGEMEGKHSQILKLSKLTPGLYEFKVIVEGQNAHSEGYVNVTVEPEPRKNRPPIAIVSPQFQEISLPTTSTVIDGSQSTDDDKIVQYHWEELKGPLREEKISEDTAILKLSKLVPGNYTFSLTVVDSDGATNSTTANLTVNKAVDHHHHHH	70.2	–
AAV-binding protein No. 84 (AVR2 + Pro336Gln, Gln386Arg, Asn487Asp) (receptor) MGSAGESVQITLPKNEVQLNAYVLQEQPKGETCTYDWQLITHPRDYSGEMEGKHSQILKLSKLTPGLYEFKVIVEGRNAHSEGYVNVTVKPEPRKNRPPIAIVSPQFQEISLPTTSTVIDGSQSTDDDKIVQYHWEELKGPLREEKISEDTAILKLSKLVPGNYTFSLTVVDSDGATDSTTANLTVNKAVDHHHHHH	48.4	–
AAV-binding protein No. 85 (AVR5e + Val317Asp) (receptor) MGSAGESDQITLPKNEVQLNAYVLQEPPKGETCTYDWQLITHPRDYSGEMEGKHSQILKLSKLTPGLYEFKVIVEGQNAHSEGYVNVTVEPEPRKNRPPIAIVSPQFQEISLPTTSTVIDGSQSTDDDKIVQYHWEELKGPLREEKISEDTAILKLSKLVPGNYTFRLTVVDSDGATDSTTANLTVNKAVDHHHHHH	–	50.2
AAV-binding protein No. 86 (AVR5e + Lys371Glu) (receptor) MGSAGESVQITLPKNEVQLNAYVLQEPPKGETCTYDWQLITHPRDYSGEMEGKHSQILKLSELTPGLYEFKVIVEGQNAHSEGYVNVTVEPEPRKNRPPIAIVSPQFQEISLPTTSTVIDGSQSTDDDKIVQYHWEELKGPLREEKISEDTAILKLSKLVPGNYTFRLTVVDSDGATDSTTANLTVNKAVDHHHHHH	–	41.6
AAV-binding protein No. 87 (AVR5e + Lys371Asn) (receptor) MGSAGESVQITLPKNEVQLNAYVLQEPPKGETCTYDWQLITHPRDYSGEMEGKHSQILKLSNLTPGLYEFKVIVEGQNAHSEGYVNVTVEPEPRKNRPPIAIVSPQFQEISLPTTSTVIDGSQSTDDDKIVQYHWEELKGPLREEKISEDTAILKLSKLVPGNYTFRLTVVDSDGATDSTTANLTVNKAVDHHHHHH	–	56.5
AAV-binding protein No. 88 (AVR5e + Leu376Pro) (receptor) MGSAGESVQITLPKNEVQLNAYVLQEPPKGETCTYDWQLITHPRDYSGEMEGKHSQILKLSKLTPGPYEFKVIVEGQNAHSEGYVNVTVEPEPRKNRPPIAIVSPQFQEISLPTTSTVIDGSQSTDDDKIVQYHWEELKGPLREEKISEDTAILKLSKLVPGNYTFRLTVVDSDGATDSTTANLTVNKAVDHHHHHH	–	41.7
AAV-binding protein No. 89 (AVR5e + Glu378Gly) (receptor) MGSAGESVQITLPKNEVQLNAYVLQEPPKGETCTYDWQLITHPRDYSGEMEGKHSQILKLSKLTPGLYGFKVIVEGQNAHSEGYVNVTVEPEPRKNRPPIAIVSPQFQEISLPTTSTVIDGSQSTDDDKIVQYHWEELKGPLREEKISEDTAILKLSKLVPGNYTFRLTVVDSDGATDSTTANLTVNKAVDHHHHHH	–	46.1
AAV-binding protein No. 90 (AVR5e + Gly392Cys) (receptor) MGSAGESVQITLPKNEVQLNAYVLQEPPKGETCTYDWQLITHPRDYSGEMEGKHSQILKLSKLTPGLYEFKVIVEGQNAHSECYVNVTVEPEPRKNRPPIAIVSPQFQEISLPTTSTVIDGSQSTDDDKIVQYHWEELKGPLREEKISEDTAILKLSKLVPGNYTFRLTVVDSDGATDSTTANLTVNKAVDHHHHHH	–	53.3
AAV-binding protein No. 92 (AVR5e + Thr320Ala, Val381Asp) (receptor) MGSAGESVQIALPKNEVQLNAYVLQEPPKGETCTYDWQLITHPRDYSGEMEGKHSQILKLSKLTPGLYEFKDIVEGQNAHSEGYVNVTVEPEPRKNRPPIAIVSPQFQEISLPTTSTVIDGSQSTDDDKIVQYHWEELKGPLREEKISEDTAILKLSKLVPGNYTFRLTVVDSDGATDSTTANLTVNKAVDHHHHHH	–	52.4
AAV-binding protein No. 94 (AVR5e + Val326Glu, Asn329His) (receptor) MGSAGESVQITLPKNEEQLHAYVLQEPPKGETCTYDWQLITHPRDYSGEMEGKHSQILKLSKLTPGLYEFKVIVEGQNAHSEGYVNVTVEPEPRKNRPPIAIVSPQFQEISLPTTSTVIDGSQSTDDDKIVQYHWEELKGPLREEKISEDTAILKLSKLVPGNYTFRLTVVDSDGATDSTTANLTVNKAVDHHHHHH	–	44.9
AAV-binding protein No. 95 (AVR5e + Val326Ala, Lys362Glu) (receptor) MGSAGESVQITLPKNEAQLNAYVLQEPPKGETCTYDWQLITHPRDYSGEMEGEHSQILKLSKLTPGLYEFKVIVEGQNAHSEGYVNVTVEPEPRKNRPPIAIVSPQFQEISLPTTSTVIDGSQSTDDDKIVQYHWEELKGPLREEKISEDTAILKLSKLVPGNYTFRLTVVDSDGATDSTTANLTVNKAVDHHHHHH	–	45.3
AAV-binding protein No. 96 (AVR5e + Val326Glu, Phe379Ser) (receptor) MGSAGESVQITLPKNEEQLNAYVLQEPPKGETCTYDWQLITHPRDYSGEMEGKHSQILKLSKLTPGLYESKVIVEGQNAHSEGYVNVTVEPEPRKNRPPIAIVSPQFQEISLPTTSTVIDGSQSTDDDKIVQYHWEELKGPLREEKISEDTAILKLSKLVPGNYTFRLTVVDSDGATDSTTANLTVNKAVDHHHHHH	–	60.9
AAV-binding protein No. 97 (AVR5e + Val332Ala, Lys371Glu) (receptor) MGSAGESVQITLPKNEVQLNAYALQEPPKGETCTYDWQLITHPRDYSGEMEGKHSQILKLSELTPGLYEFKVIVEGQNAHSEGYVNVTVEPEPRKNRPPIAIVSPQFQEISLPTTSTVIDGSQSTDDDKIVQYHWEELKGPLREEKISEDTAILKLSKLVPGNYTFRLTVVDSDGATDSTTANLTVNKAVDHHHHHH	–	49.6
AAV-binding protein No. 98 (AVR5e + Leu376Pro, Asn492Asp) (receptor) MGSAGESVQITLPKNEVQLNAYVLQEPPKGETCTYDWQLITHPRDYSGEMEGKHSQILKLSKLTPGPYEFKVIVEGQNAHSEGYVNVTVEPEPRKNRPPIAIVSPQFQEISLPTTSTVIDGSQSTDDDKIVQYHWEELKGPLREEKISEDTAILKLSKLVPGNYTFRLTVVDSDGATDSTTADLTVNKAVDHHHHHH	–	47.6
AAV-binding protein No. 99 (AVR5e + Gln318Pro, Phe379Tyr, Glu401Val) (receptor) MGSAGESVPITLPKNEVQLNAYVLQEPPKGETCTYDWQLITHPRDYSGEMEGKHSQILKLSKLTPGLYEYKVIVEGQNAHSEGYVNVTVEPVPRKNRPPIAIVSPQFQEISLPTTSTVIDGSQSTDDDKIVQYHWEELKGPLREEKISEDTAILKLSKLVPGNYTFRLTVVDSDGATDSTTANLTVNKAVDHHHHHH	–	54
AAV-binding protein No. 100 (AVR5e + Asn324Asp, Lys362Glu, Val499Glu) (receptor) MGSAGESVQITLPKDEVQLNAYVLQEPPKGETCTYDWQLITHPRDYSGEMEGEHSQILKLSKLTPGLYEFKVIVEGQNAHSEGYVNVTVEPEPRKNRPPIAIVSPQFQEISLPTTSTVIDGSQSTDDDKIVQYHWEELKGPLREEKISEDTAILKLSKLVPGNYTFRLTVVDSDGATDSTTANLTVNKAEDHHHHHH	–	50.1
AAV-binding protein No. 101 (AVR5e + Val326Glu, Asn329His, Glu378Val) (receptor) MGSAGESVQITLPKNEEQLHAYVLQEPPKGETCTYDWQLITHPRDYSGEMEGKHSQILKLSKLTPGLYVFKVIVEGQNAHSEGYVNVTVEPEPRKNRPPIAIVSPQFQEISLPTTSTVIDGSQSTDDDKIVQYHWEELKGPLREEKISEDTAILKLSKLVPGNYTFRLTVVDSDGATDSTTANLTVNKAVDHHHHHH	–	48.5
AAV-binding protein No. 102 (AVR5e + Leu328Pro, Lys362Asn, Thr397Ser, Arg406His) (receptor) MGSAGESVQITLPKNEVQPNAYVLQEPPKGETCTYDWQLITHPRDYSGEMEGNHSQILKLSKLTPGLYEFKVIVEGQNAHSEGYVNVSVEPEPRKNHPPIAIVSPQFQEISLPTTSTVIDGSQSTDDDKIVQYHWEELKGPLREEKISEDTAILKLSKLVPGNYTFRLTVVDSDGATDSTTANLTVNKAVDHHHHHH	–	41.1
